Measurements published in patent publication US20190352423A1 (Genmab, published 2019).

T1: recombinant human CD63 second extracellular domain (Ala 103-Val 203) fused with a polyhistidine tag at the … (human, UniProt P08962 103-203)
T1 construct: range 103-203; Bought from Creative BioMart; also called human His-tagged CD63; soluble CD63
T1 sequence (looked up): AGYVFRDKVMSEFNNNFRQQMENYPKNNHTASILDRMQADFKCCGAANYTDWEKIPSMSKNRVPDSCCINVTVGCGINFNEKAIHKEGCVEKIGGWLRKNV

B1: IgG1-CD63 affinity variant G76H (antibody, V domains shown)
VH: EVQLQQSGPELVKPGASVKMSCKASGYTFTSYVMHWVRQTPGQGLEWIGYITPYNDHTKYNEKFKGKATLTSDKSSSTAYMELSSLTSEDSAVYYCVGGDNYYYAMDYWGQGTSVTVSA
VL: NIMVTQSPSSLAVSAGEKVTMSCKSSQSVLYSSNQKNYLAWYQQKPGQSPKLLIYWASTRVSGVPDRFTGSGSGTDFTLTISRVQAEDLAVYYCHQYFSSFTFGSGTKLEIKR
notes: As m1 with one histidine substitution
B2: IgG1-CD63 affinity variant LQ47 (antibody, V domains shown)
VH: EVQLQQSGPELVKPGASVKMSCKASGYTFTSYVMHWVRQTPGQGLEWIGYITPYNDGTKYNEKFKGKATLTSDKSSSTAYMELSSLTSEDSAVYYCVGGDNYYYAMDYWGQGTSVTVSA
VL: NIMVTQSPSSLAVSAGEKVTMSCKSSHSVLYSSNQKNYLAWYQQKPGQSPKLLIYWASTRVSGVPDRFTGSGSGTDFTLTISRVQAEDLAVYYCHQYFSSFTFGSGTKLEIKR
notes: As m1 with one histidine substitution in the light chain
B3: IgG1-CD63 affinity variant LS52 (antibody, V domains shown)
VH: EVQLQQSGPELVKPGASVKMSCKASGYTFTSYVMHWVRQTPGQGLEWIGYITPYNDGTKYNEKFKGKATLTSDKSSSTAYMELSSLTSEDSAVYYCVGGDNYYYAMDYWGQGTSVTVSA
VL: NIMVTQSPSSLAVSAGEKVTMSCKSSQSVLYHSNQKNYLAWYQQKPGQSPKLLIYWASTRVSGVPDRFTGSGSGTDFTLTISRVQAEDLAVYYCHQYFSSFTFGSGTKLEIKR
notes: as for B2
B4: IgG1-CD63 affinity variant LV49H (antibody, V domains shown)
VH: EVQLQQSGPELVKPGASVKMSCKASGYTFTSYVMHWVRQTPGQGLEWIGYITPYNDGTKYNEKFKGKATLTSDKSSSTAYMELSSLTSEDSAVYYCVGGDNYYYAMDYWGQGTSVTVSA
VL: NIMVTQSPSSLAVSAGEKVTMSCKSSQSHLYSSNQKNYLAWYQQKPGQSPKLLIYWASTRVSGVPDRFTGSGSGTDFTLTISRVQAEDLAVYYCHQYFSSFTFGSGTKLEIKR
notes: as for B2
B5: IgG1-CD63 affinity variant LY51H (antibody, V domains shown)
VH: EVQLQQSGPELVKPGASVKMSCKASGYTFTSYVMHWVRQTPGQGLEWIGYITPYNDGTKYNEKFKGKATLTSDKSSSTAYMELSSLTSEDSAVYYCVGGDNYYYAMDYWGQGTSVTVSA
VL: NIMVTQSPSSLAVSAGEKVTMSCKSSQSVLHSSNQKNYLAWYQQKPGQSPKLLIYWASTRVSGVPDRFTGSGSGTDFTLTISRVQAEDLAVYYCHQYFSSFTFGSGTKLEIKR
notes: as for B2
B6: IgG1-CD63 affinity variant P72H (antibody, V domains shown)
VH: EVQLQQSGPELVKPGASVKMSCKASGYTFTSYVMHWVRQTPGQGLEWIGYITHYNDGTKYNEKFKGKATLTSDKSSSTAYMELSSLTSEDSAVYYCVGGDNYYYAMDYWGQGTSVTVSA
VL: NIMVTQSPSSLAVSAGEKVTMSCKSSQSVLYSSNQKNYLAWYQQKPGQSPKLLIYWASTRVSGVPDRFTGSGSGTDFTLTISRVQAEDLAVYYCHQYFSSFTFGSGTKLEIKR
B7: IgG1-CD63 affinity variant T71H (antibody, V domains shown)
VH: EVQLQQSGPELVKPGASVKMSCKASGYTFTSYVMHWVRQTPGQGLEWIGYIHPYNDGTKYNEKFKGKATLTSDKSSSTAYMELSSLTSEDSAVYYCVGGDNYYYAMDYWGQGTSVTVSA
VL: NIMVTQSPSSLAVSAGEKVTMSCKSSQSVLYSSNQKNYLAWYQQKPGQSPKLLIYWASTRVSGVPDRFTGSGSGTDFTLTISRVQAEDLAVYYCHQYFSSFTFGSGTKLEIKR
B8: IgG1-CD63 affinity variant Y46 (antibody, V domains shown)
VH: EVQLQQSGPELVKPGASVKMSCKASGHTFTSYVMHWVRQTPGQGLEWIGYITPYNDGTKYNEKFKGKATLTSDKSSSTAYMELSSLTSEDSAVYYCVGGDNYYYAMDYWGQGTSVTVSA
VL: NIMVTQSPSSLAVSAGEKVTMSCKSSQSVLYSSNQKNYLAWYQQKPGQSPKLLIYWASTRVSGVPDRFTGSGSGTDFTLTISRVQAEDLAVYYCHQYFSSFTFGSGTKLEIKR
notes: as for B1
B9: IgG1-CD63 affinity variant Y79H (antibody, V domains shown)
VH: EVQLQQSGPELVKPGASVKMSCKASGYTFTSYVMHWVRQTPGQGLEWIGYITPYNDGTKHNEKFKGKATLTSDKSSSTAYMELSSLTSEDSAVYYCVGGDNYYYAMDYWGQGTSVTVSA
VL: NIMVTQSPSSLAVSAGEKVTMSCKSSQSVLYSSNQKNYLAWYQQKPGQSPKLLIYWASTRVSGVPDRFTGSGSGTDFTLTISRVQAEDLAVYYCHQYFSSFTFGSGTKLEIKR
notes: as for B1
B10: IgG1-CD63 affinity variant Y121H (antibody, V domains shown)
VH: EVQLQQSGPELVKPGASVKMSCKASGYTFTSYVMHWVRQTPGQGLEWIGYITPYNDGTKYNEKFKGKATLTSDKSSSTAYMELSSLTSEDSAVYYCVGGDNHYYAMDYWGQGTSVTVSA
VL: NIMVTQSPSSLAVSAGEKVTMSCKSSQSVLYSSNQKNYLAWYQQKPGQSPKLLIYWASTRVSGVPDRFTGSGSGTDFTLTISRVQAEDLAVYYCHQYFSSFTFGSGTKLEIKR
notes: as for B1
B11: IgG1-CD63 affinity variant Y127 (antibody, V domains shown)
VH: EVQLQQSGPELVKPGASVKMSCKASGYTFTSYVMHWVRQTPGQGLEWIGYITPYNDGTKYNEKFKGKATLTSDKSSSTAYMELSSLTSEDSAVYYCVGGDNYYYAMDHWGQGTSVTVSA
VL: NIMVTQSPSSLAVSAGEKVTMSCKSSQSVLYSSNQKNYLAWYQQKPGQSPKLLIYWASTRVSGVPDRFTGSGSGTDFTLTISRVQAEDLAVYYCHQYFSSFTFGSGTKLEIKR
notes: as for B1
B12: anti-CD63-LN54H (antibody, V domains shown)
VH: EVQLQQSGPELVKPGASVKMSCKASGYTFTSYVMHWVRQTPGQGLEWIGYITPYNDGTKYNEKFKGKATLTSDKSSSTAYMELSSLTSEDSAVYYCVGGDNYYYAMDYWGQGTSVTVSA
VL: NIMVTQSPSSLAVSAGEKVTMSCKSSQSVLYSSHQKNYLAWYQQKPGQSPKLLIYWASTRVSGVPDRFTGSGSGTDFTLTISRVQAEDLAVYYCHQYFSSFTFGSGTKLEIKR

Molecular target: T1, recombinant human CD63 second …
Assay: BLI (Octet HTX), IgG on anti-human Fc sensors, His-tagged CD63 as analyte, 30 C
Protocol: Association and dissociation kinetics of human His-tagged CD63 (100 nM, 50 nM, 25 nM and 12.5 nM, concentrations were calculated using the predicted molecular weight of 13 kDa) were determined in Sample Diluent (ForteBio), using an association time of 1000 s, a dissociation time of 2000 s and a shaker speed of 1000 rpm at 30° C. Data traces were corrected using a reference sensor exposed to Sample Diluent only during the association and dissociation steps, the Y-axis was aligned to baseline and Inter-step correction as well as Savitzky-Golay filtering were applied. The association rate constant Kₒₙ (1/Ms), dissociation rate constant Kdis (1/s) and equilibrium dissociation constant KD (M) were determined with ForteBio Data Analysis Software v8.1, using the 1:1 model and a global full fit.

In order of falling Kd:
1. B4  27 nM
2. B5  20 nM
3. B10  20 nM
4. B1  17 nM
5. B7  7.3 nM
6. B6  3.3 nM
7. B12  2 nM
8. B8  0.78 nM
9. B9  0.67 nM
10. B11  0.54 nM
11. B2  0.37 nM
12. B3  0.36 nM

In order of rising koff:
1. B3  6.3e-05 s⁻¹
2. B2  6.7e-05 s⁻¹
3. B11  0.00011 s⁻¹
4. B9  0.00014 s⁻¹
5. B8  0.00016 s⁻¹
6. B1  0.00038 s⁻¹
7. B12  0.00039 s⁻¹
8. B6  0.00057 s⁻¹
9. B7  0.0011 s⁻¹
10. B10  0.0014 s⁻¹
11. B5  0.0019 s⁻¹

In order of rising kon:
1. B1  22000 M⁻¹ s⁻¹
2. B10  70000 M⁻¹ s⁻¹
3. B5  98000 M⁻¹ s⁻¹
4. B7  150000 M⁻¹ s⁻¹
5. B3  170000 M⁻¹ s⁻¹
6. B6  170000 M⁻¹ s⁻¹
7. B2  180000 M⁻¹ s⁻¹
8. B12  190000 M⁻¹ s⁻¹
9. B8  200000 M⁻¹ s⁻¹
10. B11  200000 M⁻¹ s⁻¹
11. B9  210000 M⁻¹ s⁻¹
